Measurements: paper PMC9365803, “Identification of a HTT-specific binding motif in DNAJB1 essential for suppression and disaggregation of HTT” (Nature Communications, 2022)
Like-named read-outs stand apart in the source and are kept apart here. Values belong to the molecule of their own block, whether it stands above or below them.

Experiments:
HTTExon1Q48 [1] = biological target: HTTExon1Q48
HTTExon1Q48 [2] = biological target: HTTExon1Q48; remark: listed apart in the source
DNAJB1^wt [3] = biological target: T1, DNAJB1^wt (human, UniProt P25685 1-340); assay: cross-linking; XL-MS: HTTExon1Q23/48 incubated with Hsc70, DNAJB1 and Apg2 in the presence of ATP; 5–10 μM total protein, 0.5–1 mM SDA, 30 min at room temperature, UV photoactivation, SDS-PAGE, in-gel digestion with elastase, LC/MS; settings: both partners purified
T1 construct: DNAJB1 (human Hsp40), class B J-domain protein; primers M1/S1 start at the start codon and the stop codon follows residue 340 (primers E, T1); also called wt DNAJB1; Hsp40; source: E. coli BL21-CodonPlus (DE3)-RIPL, purified (Ni-NTA; His-Smt3 tag cleaved with His-Ulp1); not shown: 6His-Smt3, N-terminal, cleaved

[4] = biological target: the molecule itself; assay: FRET or BRET; fibrilization assay: equimolar GST-HTTExon1Q48-CyPet and GST-HTTExon1Q48-YPet, 0.75 µM in all; 30 mM HEPES pH 7.4, 150 mM NaCl, 5 mM MgCl2, 1 mM DTT, 5 mM ATP with regenerating system; without chaperones; FRET rises on aggregation
DNAJB1^wt [5] = biological target: T1, DNAJB1^wt; assay: co-sedimentation; HTT fibril-binding assay: 2 µM HTTExon1Q48 aggregated 4.5 h at 20 °C; DNAJB1 variant added at 1 µM, 1 h at RT; sedimented at 20.000 rpm 30 min 4 °C; pellet analysed by Western blot; settings: both partners purified

T1 sequence (P25685 whole entry): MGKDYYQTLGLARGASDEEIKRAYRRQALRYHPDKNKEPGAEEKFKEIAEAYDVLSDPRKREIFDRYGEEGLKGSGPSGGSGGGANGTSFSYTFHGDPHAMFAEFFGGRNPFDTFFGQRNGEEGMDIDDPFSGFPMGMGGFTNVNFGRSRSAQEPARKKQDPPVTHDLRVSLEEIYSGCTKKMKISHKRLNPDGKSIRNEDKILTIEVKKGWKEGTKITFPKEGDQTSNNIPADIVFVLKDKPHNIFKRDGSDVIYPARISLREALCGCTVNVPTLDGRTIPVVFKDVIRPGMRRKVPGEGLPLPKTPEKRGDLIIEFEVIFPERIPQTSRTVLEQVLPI

Molecule: DNAJB1^H244Q (from UniProt P25685 1-340) (natural protein)
half-life (T1/2) of HTTExon1Q48 fibrilization, FRET assay, with Hsc70, Apg2 and ATP (HTTExon1Q48 [1]): 24 h

B1: HTTExon1Q48 (domain or fragment)
chain: MATLEKLMKAFESLKSFQQQQQQQQQQQQQQQQQQQQQQQQQQQQQQQQQQQQQQQQQQQQQQQQPPPPPPPPPPPQLPQPPPQAQPLLPQLQPPPPPPPPPPGPAAAEEPLHRP
notes: first exon of huntingtin with an expanded stretch of 48 glutamines; The XL-MS methods say only HTT; the only purification told is that of GST-HTTExon1Q48-CyPet/YPet (pGEX-6P1), so tags in the XL-MS sample are not certain; In the FRET assay two forms (CyPet and YPet) are mixed equimolar; also called GST-HTTExon1Q48-CyPet/YPet; HTTExon1Q48-CyPet/YPet; source: E. coli BL21-CodonPlus (DE3)-RIPL, …
binding result (DNAJB1^wt [3]): binds
binding result [4]: binds

B2: HTTExon1Q48 fibrils (other)
chain: MATLEKLMKAFESLKSFQQQQQQQQQQQQQQQQQQQQQQQQQQQQQQQQQQQQQQQQQQQQQQQQPPPPPPPPPPPQLPQPPPQAQPLLPQLQPPPPPPPPPPGPAAAEEPLHRP
notes: first exon of huntingtin with 48 glutamines, as amyloid fibrils; Amyloid fibrils of many copies; also called HTT fibrils; preformed HTTExon1Q48 fibrils; not shown: GST, N-terminal, cleaved; CyPet, C-terminal, kept
binding result (DNAJB1^wt [5]): binds

B3: HTTExon1Q48ΔP2 (domain or fragment)
chain: MATLEKLMKAFESLKSFQQQQQQQQQQQQQQQQQQQQQQQQQQQQQQQQQQQQQQQQQQQQQQQQPPPPPPPPPPPQLPQPPPQAQPLLPQAAEEPLHRP
notes: Used soluble in the FRET assay and as fibrils in the disaggregation assay; also called HTTExon1Q48ΔP2-CyPet/YPet; source: E. coli BL21-CodonPlus (DE3)-RIPL, purified (glutathione sepharose); not shown: CyPet or YPet, C-terminal, kept
binding result [4]: binds

The next lines start with the values.

half-life (T1/2) of HTTExon1Q48 fibrilization, FRET assay, with Hsc70, Apg2 and ATP (HTTExon1Q48 [1]): 10 h
Molecule: DNAJB1^H244F (from UniProt P25685 1-340) (natural protein)

half-life (T1/2) of HTTExon1Q48 fibrilization, FRET assay, with Hsc70, Apg2 and ATP (HTTExon1Q48 [1]): 17 h
Molecule: DNAJB1^H244R (from UniProt P25685 1-340) (natural protein)

half-life (T1/2) of HTTExon1Q48 fibrilization, FRET assay, with Hsc70, Apg2 and ATP (HTTExon1Q48 [2]): 16 h
Molecule: DNAJB1^K242A (from UniProt P25685 1-340) (natural protein)
